# Laboratory results published in US20190218553, “VON WILLEBRAND FACTOR (VWF)-TARGETING AGENTS AND METHODS OF USING THE SAME” (DUKE UNIVERSITY, published 2019).
# Changes are numbered by the printed parent chain.
# B1: T59 vrt3 (ssRNA)
# RNA: ACGAACUGCCCUCGAUCGACGCACAGACGU
# modifications: rAfCrGmAmAmCfUmGfCfCfCfUmCmGmAmUmCmGrAfCmGfCmAmCmAmGmAfCrGfU-idT
# B2: T83 vrt1 (ssRNA)
# RNA: ACGAACUGCCCUCGAUCGACGCACAGACGUAAAAA
# modifications: 2'-F C2,U7,C9,C10,C11,U12,C20,C22,C28,U30; ribo A1,G3,G8,A19,G21,A23,G29; rest 2'-OMe; 3' idT
# B3: T84 vrt6 (ssRNA)
# RNA: B2 RNA with A32C, A34C, A35G
# modifications: 2'-F C9,C10,C11,C20,G21,C22,U30; rest 2'-OMe; 3' idT
# B4: T82 vrt6 (ssRNA)
# RNA: B2 RNA with A32C, A33C, A34C, A35G
# modifications: 2'-F C9,C10,C11,C20,G21,C22,U30; rest 2'-OMe; 3' idT
# B5: T83 vrt7 (ssRNA)
# RNA: B2 RNA
# modifications: 2'-F C9,C10,C11,C20,G21,C22; rest 2'-OMe; 3' idT
# B6: T83 vrt6 (ssRNA)
# RNA: B2 RNA
# modifications: 2'-F C9,C10,C11,C20,G21,C22,U30; rest 2'-OMe; 3' idT
# B7: T59 vrt7 (ssRNA)
# RNA: B1 RNA
# modifications: mAfCmGmAmAmCfUrGfCfCfCfUmCmGmAmUmCmGrAfCrGfCrAmCmAmGmAfCmGfU-idT
# B8: T15 (ssRNA)
# RNA: GGGAGGUGGACGAACUGCCCUCAGCUACCAUGUUGCUGACGCACAGACGACUCGCUG
# modifications: 2'-F C and U; 2'-OH A and G
# B9: T63 (ssRNA)
# RNA: ACGAACGCCCUCGAUUAUUCGACGCACGACGU
# modifications: 2'-F C and U; 2'-OH A and G; 3' idT
# B10: T59 vrt16 (ssRNA)
# RNA: B1 RNA
# modifications: mAmCmGmAmAmCfUrGfCfCfCmUmCmGmAmUmCmGmAfCmGfCmAmCmAmGmAmCmGfU-idT
# B11: T51 (ssRNA)
# RNA: ACGAACUGCCCUCAGACUUAUGUCUGACGCACAGACGU
# modifications: 2'-F C and U; 2'-OH A and G; 3' idT
# B12: T60 (ssRNA)
# RNA: ACGAACUGCCCUCGAUUUCGACGCACAGACGU
# modifications: 2'-F C and U; 2'-OH A and G; 3' idT
# B13: T94 vrt7 (ssRNA)
# RNA: B12 RNA with G14U, A15U, C19U
# modifications: 2'-F C9,C10,C11,C22,G23,C24; rest 2'-OMe; 3' idT
# B14: T35 (ssRNA)
# RNA: ACGAACUGCCCUCAGUACUUUCAUGUUCUGACGCACAGACGU
# modifications: 2'-F C and U; 2'-OH A and G; 3' idT
# B15: T33 (ssRNA)
# RNA: B14 RNA with U16C, U27G
# modifications: 2'-F C and U; 2'-OH A and G; 3' idT
# B16: T41 (ssRNA)
# RNA: ACGAACUGCCCUCAGCACUUAUGUGCUGACGCACAGACGU
# modifications: 2'-F C and U; 2'-OH A and G; 3' idT
# B17: T25 vrt9 (ssRNA)
# RNA: ACGAACUGCCCUCAGCUACUUUCAUGUUGCUGACGCACAGACGU
# modifications: rAfCrGrArAfCfUrGfCfCfCfUfCmAmGfCfUmAfCfUfUfUfCrAfUrGfUfUmGfCfUmGrAfCrGfCrAfCrArGrAfCrGfU-idT
# B18: T25 vrt21 (ssRNA)
# RNA: B17 RNA
# modifications: rAfCrGrArAfCfUrGfCfCfCmUfCrArGfCfUrAfCfUfUfUfCrAfUrGfUfUrGfCfUrGmAfCrGfCrAfCrArGrAfCrGfU-idT
# B19: T25 vrt12 (ssRNA)
# RNA: B17 RNA
# modifications: rAfCrGrArAfCfUrGfCfCfCfUfCrArGfCfUrAmCmUmUmUmCmAmUmGfUfUrGfCfUrGrAfCrGfCrAfCrArGrAfCrGfU-idT
# B20: T25 vrt11 (ssRNA)
# RNA: B17 RNA
# modifications: rAfCrGrArAfCfUrGfCfCfCfUfCrArGfCfUrAfCfUfUfUfCmAfUmGfUfUrGfCfUrGrAfCrGfCrAfCrArGrAfCrGfU-idT
# What was measured:
# [1] = biological target: T1, von Willebrand factor (VWF) (Homo sapiens, UniProt P04275 P04275:764-2813); experiment: filter; Bmax 49%; 2 mM CaCl2, 37 C; conditions: tags: factor VIII free, Haematologic Technologies Inc; label: 5'-32P
# Protocol: (§1) Affinity constants (Kd values) were determined using double-filter nitrocellulose filter binding assays (Rusconi et al, Thromb. Haemost. $4:841-848 (2000)). All binding studies were performed in binding buffer F (20 mM HEPES, pH 7.4, 150 mM NaCl, 2 mM CaCl₂, and 0.01% BSA) at 37° C. Human purified VWF (factor VIII free) was purchased from Haematologic Technologies Inc. (Essex Junction, Vt.) and used in the double-filter nitrocellulose filter binding assay to determine the Kd of the aptamers. Briefly, RNA were end-labeled at the 5′ end with T4 polynucleotide kinase (New England Biolabs, Beverly, Mass.) and [γ³²P] ATP (Amersham Pharmacia Biotech, Piscataway, N.J.) (Fitzwater and Polisky, Methods Enzymol. 267:275-301 (1996)). End-labeled RNA was diluted in binding buffer F, heat denatured at 65° C. for 5 minutes, and subsequently equilibrated at 37° C. Direct binding was performed by incubating trace ³²P-RNA with varying concentrations of VWF protein in binding buffer F at 37° C. for 5 min. The fraction of the nucleic acid-protein complex which bound to the nitrocellulose membrane was quantified with a phosphorimager (Molecular Dynamics, Sunnyvale, Calif.). Non-specific binding of the radiolabeled nucleic acid was subtracted out of the binding such that only specific binding remained (Wong and Lohman, Proc. Natl. Acad. Sci. USA 90:5428-5432 (1993)).
# [2] = biological target: T1, von Willebrand factor (VWF); experiment: filter; Bmax 73%; 2 mM CaCl2, 37 C; conditions: tags: factor VIII free human purified VWF, Haematologic Technologies Inc; label: 5'-32P
# Protocol: as §1
# [3] = biological target: T1, von Willebrand factor (VWF); experiment: filter; Bmax 71%; 2 mM CaCl2, 37 C; conditions: Haematologic Technologies Inc, label: 5'-32P
# Protocol: as §1
# [4] = biological target: T1, von Willebrand factor (VWF); experiment: filter; Bmax 67%; 2 mM CaCl2, 37 C; conditions: tags: factor VIII free human purified VWF, Haematologic Technologies Inc; label: 5'-32P
# Protocol: as §1
# [5] = biological target: T1, von Willebrand factor (VWF); experiment: filter; Bmax 83%; 2 mM CaCl2, 37 C; conditions: tags: factor VIII free human purified VWF, Haematologic Technologies Inc; label: 5'-32P
# Protocol: as §1
# [6] = biological target: T1, von Willebrand factor (VWF); experiment: filter; Bmax 84%; 2 mM CaCl2, 37 C; conditions: tags: factor VIII free, Haematologic Technologies Inc; label: 5'-32P
# Protocol: as §1
# [7] = biological target: T1, von Willebrand factor (VWF); experiment: filter; Bmax 13%; 2 mM CaCl2, 37 C; conditions: tags: factor VIII free, Haematologic Technologies Inc; label: 5'-32P
# Protocol: as §1
# [8] = biological target: T1, von Willebrand factor (VWF); experiment: filter; Bmax 10%; 2 mM CaCl2, 37 C; conditions: tags: factor VIII free, Haematologic Technologies Inc; label: 5'-32P
# Protocol: as §1
# [9] = biological target: T1, von Willebrand factor (VWF); experiment: filter; Bmax 57%; 2 mM CaCl2, 37 C; conditions: tags: factor VIII free, Haematologic Technologies Inc; label: 5'-32P
# Protocol: as §1
# [10] = biological target: T1, von Willebrand factor (VWF); experiment: filter; Bmax 56%; 2 mM CaCl2, 37 C; conditions: tags: factor VIII free, Haematologic Technologies Inc; label: 5'-32P
# Protocol: as §1
# [11] = biological target: T1, von Willebrand factor (VWF); experiment: filter; Bmax 66%; 2 mM CaCl2, 37 C; conditions: tags: factor VIII free, Haematologic Technologies Inc; label: 5'-32P
# Protocol: as §1
# [12] = biological target: T1, von Willebrand factor (VWF); experiment: filter; Bmax 62%; 2 mM CaCl2, 37 C; conditions: tags: factor VIII free, Haematologic Technologies Inc; label: 5'-32P
# Protocol: as §1
# [13] = biological target: T1, von Willebrand factor (VWF); experiment: filter; Bmax 59%; 2 mM CaCl2, 37 C; conditions: tags: factor VIII free, Haematologic Technologies Inc; label: 5'-32P
# Protocol: as §1
# [14] = tags: factor VIII free human purified VWF
binder,measurement,setting,value
B1,Kd,[1],288 nM
B2,Kd,[2],2.1 nM
B3,Kd,[3]; [14],149 nM
B4,Kd,[4],223 nM
B5,Kd,[5],265 nM
B6,Kd,[4],209 nM
B7,Kd,[6],0.8 nM
B8,Kd,[7],83 nM
B9,Kd,[8],83 nM
B10,Kd,[9],132 nM
B11,Kd,[10],17 nM
B12,Kd,[3]; tags: factor VIII free,12.5 nM
B13,Kd,[3]; [14],29 nM
B14,Kd,[11],12 nM
B15,Kd,[11],15 nM
B16,Kd,[1],8.6 nM
B17,Kd,[9],9.8 nM
B18,Kd,[12],17 nM
B19,Kd,[13],7.1 nM
B20,Kd,[9],7.2 nM
